Data reported in IntAct's records for PubMed 20924357.

B1: Cryptic beta-glucoside bgl operon antiterminator (Escherichia coli (strain K12)), P11989 (parent)
chain: MNMQITKILNNNVVVVIDDQQREKVVMGRGIGFQKRAGERINSSGIEKEYALSSHELNGRLSELLSHIPLEVMATCDRIISLAQERLGKLQDSIYISLTDHCQFAIKRFQQNVLLPNPLLWDIQRLYPKEFQLGEEALTIIDKRLGVQLPKDEVGFIAMHLVSAQMSGNMEDVAGVTQLMREMLQLIKFQFSLNYQEESLSYQRLVTHLKFLSWRILEHASINDSDESLQQAVKQNYPQAWQCAERIAIFIGLQYQRKISPAEIMFLAINIERVRKEH

Variants of: B1
Conditions: with pthp_ecoli ptsH

| effect of a mutation on the interaction | Variant |
| --- | --- |
| increasing interaction | D100N |

Variants of: B1
Conditions: with pthp_ecoli ptsH
Remark: another data set of the same source

| effect of a mutation on the interaction | Variant |
| --- | --- |
| increasing interaction | H208R |

Variants of: B1
Conditions: with pt1_ecoli ptsI

| effect of a mutation on the interaction | Variant |
| --- | --- |
| increasing interaction | H208R |

Variants of: B1
Conditions: with pt1_ecoli ptsI
Remark: another data set of the same source

| effect of a mutation on the interaction | Variant |
| --- | --- |
| decreasing interaction | H208R |

Variants of: B1
Conditions: with pthp_ecoli ptsH
Remark: another data set of the same source

| effect of a mutation on the interaction | Variant |
| --- | --- |
| increasing interaction | H160Y |
